Peptide text beside a SMILES is read from it. * marks the point of attachment. Doxorubicin(3'-N) = COc1cccc2c1C(=O)c1c(O)c3c(c(O)c1C2=O)C[C@@](O)(C(=O)CO)C[C@@H]3O[C@H]1C[C@H](N*)[C@H](O)[C@H](C)O1
What was measured:
[1] = Systemic toxicity after repeated oral administration; format: in vivo, BALB/c mice; details: 10 mg/kg FDX or equivalent, three-day intervals, n = 5
Experimental: To evaluate the therapeutic efficacy of FDX@mEVs, all controls and FDX@mEVs (PBS, mEVs, FDX, and FDX@mEVs; an equivalent dose of 10 mg/kg of FDX dispersed in 100 μL of PBS) were orally administered to CT26 tumor-bearing mice when the average tumor size reached approximately 50 - 70 mm^3. The CT26 tumor-bearing mice were modeled in the same manner as the previous method by inoculating 1.5 x 10^6 cells into the left flank of 7-week-old BALB/c mice (BALB/cAnNCrlOri). The six-repeated administration was conducted every three days, and tumor sizes and body weights were measured every two days. All subjects were sacrificed three days after the last administration, and blood, major organs, and tumor tissues were collected for the following analysis.
Systemic toxicity of FDX@mEVs was assessed by analyzing hematological parameters and histological assay of major organs. To assess liver damage by FDX@mEVs, AST, and ALT levels were analyzed. In addition, BUN and creatinine levels were also evaluated to confirm renal toxicity. Subsequently, all major organs were used for H&E staining to verify the histological damage of FDX@mEVs. H&E staining was performed according to the same protocol used in our previous study. Briefly, all sections were incubated in Hematoxylin solution for 5 min at RT. All incubated tissue sections were washed using tap water for 3 min. […]

[2] = Biodistribution after oral administration, NIRF imaging of GI tract; parameters: species or system BALB/c mice; details: mouse
Experimental: All animal experiments were performed following the International Guide for the Care and Use of Laboratory Animals and were approved by the Korea Institute of Science and Technology. 7-week-old BALB/c mice (n = 3 per each time point) were used to monitor the in vivo biodistribution of mEVs. […] Fluorescence signals in the GI tract were monitored by NIRF imaging. Following the assessment of GI tract distribution, all mice were anesthetized using 2.5% isoflurane gas and dissected to extract their major organs (liver, lung, spleen, heart, and kidney) along with the GI tract, and blood for PK analysis. PK analysis was performed by measuring the fluorescence signal of FDX and mEVs present in the blood at each time point (20 min, 40 min, 1 h, 3 h, 6 h, and 24 h).

## COc1cccc2c1C(=O)c1c(O)c3c(c(O)c1C2=O)C[C@@](O)(C(=O)CO)C[C@@H]3O[C@H]1C[C@H](NC(=O)CNC(=O)[C@H](CCCNC(=N)N)NC(=O)[C@H](CCCNC(=N)N)NC(=O)[C@H](Cc2ccccc2)NC(C)=O)[C@H](O)[C@H](C)O1 [FDX, FRRG-DOX] (Ac-FRRG-{Doxorubicin(3'-N)})
[1]
  body weight during repeated oral administration compared to PBS group: no significant changes
[2]
  in vivo clearance time after oral administration: ≤ 3 h

Reference: publication PMC11413795, “Milk-derived extracellular vesicles enable gut-to-tumor oral delivery of tumor-activated doxorubicin prodrugs” (Theranostics, 2024)
